# According to the supplement of paper PMC10065799, “High-throughput profiling of sequence recognition by tyrosine kinases and SH2 domains using bacterial peptide display” (eLife, 2023):
# Assays:
# c-Src SH2 = assay: SH2 binding enrichment of the phosphorylated peptide, bacterial display (enrichment ratio); higher = better substrate or ligand; peptides without Tyr show the background
# Grb2 SH2 = Grb2 SH2 (UniProt P62993); assay: as above
# SHP2-C SH2 = assay: as above
# Fer (mouse) = assay: phosphorylation enrichment, bacterial display (enrichment ratio); higher = better substrate or ligand; peptides without Tyr show the background
# EPHB2 = EPHB2 (UniProt P29323); assay: as above
# Fyn = Fyn (UniProt P06241); assay: as above
# MERTK = MERTK (UniProt Q12866); assay: as above
# c-Src = assay: as above
# c-Abl (mouse) = assay: as above
# FGFR3 = FGFR3 (UniProt P22607); assay: as above
# Jak2 = Jak2 (UniProt O60674); assay: as above
# Fes = Fes (UniProt P07332); assay: as above
# Hck = Hck (UniProt P08631); assay: as above
# EPHB1 = EPHB1 (UniProt P54762); assay: as above
# AncSZ = assay: as above
# FGFR1 = FGFR1 (UniProt P11362); assay: as above
# 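For SH2 binding enrichment of the phosphorylated peptide, bacterial display in this document: peptide library displayed on the E. coli surface as eCPX fusions, selected cells deep-sequenced, score is each peptide's frequency after selection divided by its frequency in the input.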
# 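For phosphorylation enrichment, bacterial display in this document: 11-residue human phosphosite peptides and single-mutation variants displayed on the E. coli surface, counted by deep sequencing, each peptide's frequency after selection divided by its frequency in the unselected input library; frequency after pTyr selection over input frequency; kinase dosed for 20-30% of maximal phosphorylation in three min.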
# Grb2 SH2, sequence (P62993 whole entry, looked up): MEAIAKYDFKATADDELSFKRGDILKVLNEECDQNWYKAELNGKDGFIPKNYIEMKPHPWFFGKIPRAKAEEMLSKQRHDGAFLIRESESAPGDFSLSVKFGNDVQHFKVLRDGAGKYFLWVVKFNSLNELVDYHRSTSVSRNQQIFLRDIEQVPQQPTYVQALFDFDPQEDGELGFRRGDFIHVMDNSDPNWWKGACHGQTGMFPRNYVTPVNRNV
# EPHB2, sequence (P29323 whole entry, looked up): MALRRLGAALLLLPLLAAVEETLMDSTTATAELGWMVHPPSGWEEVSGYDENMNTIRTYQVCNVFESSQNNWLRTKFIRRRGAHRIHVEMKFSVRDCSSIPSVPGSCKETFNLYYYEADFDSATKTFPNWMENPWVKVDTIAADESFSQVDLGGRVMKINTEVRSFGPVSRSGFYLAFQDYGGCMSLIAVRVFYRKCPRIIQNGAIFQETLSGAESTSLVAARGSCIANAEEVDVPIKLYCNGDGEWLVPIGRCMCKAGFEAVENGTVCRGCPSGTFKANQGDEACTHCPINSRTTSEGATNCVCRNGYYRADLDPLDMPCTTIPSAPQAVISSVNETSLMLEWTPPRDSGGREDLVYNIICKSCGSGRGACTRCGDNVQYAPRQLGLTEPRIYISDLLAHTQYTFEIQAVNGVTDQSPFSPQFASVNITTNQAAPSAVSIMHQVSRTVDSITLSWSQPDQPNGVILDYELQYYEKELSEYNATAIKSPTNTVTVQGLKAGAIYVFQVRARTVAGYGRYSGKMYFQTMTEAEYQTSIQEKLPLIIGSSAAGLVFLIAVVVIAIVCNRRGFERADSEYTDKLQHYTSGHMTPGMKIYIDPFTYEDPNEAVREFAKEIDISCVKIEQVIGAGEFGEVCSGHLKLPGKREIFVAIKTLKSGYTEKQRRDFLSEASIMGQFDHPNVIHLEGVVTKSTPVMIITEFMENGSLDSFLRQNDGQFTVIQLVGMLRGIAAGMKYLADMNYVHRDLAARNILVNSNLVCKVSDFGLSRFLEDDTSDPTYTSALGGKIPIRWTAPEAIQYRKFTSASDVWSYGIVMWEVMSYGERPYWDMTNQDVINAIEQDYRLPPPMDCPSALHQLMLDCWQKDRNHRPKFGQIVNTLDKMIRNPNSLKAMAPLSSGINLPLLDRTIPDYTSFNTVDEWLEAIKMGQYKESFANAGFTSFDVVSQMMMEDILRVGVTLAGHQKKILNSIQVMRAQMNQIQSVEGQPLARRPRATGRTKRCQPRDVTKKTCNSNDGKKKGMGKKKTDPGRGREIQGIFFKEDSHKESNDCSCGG
# Fyn, sequence (P06241 whole entry, looked up): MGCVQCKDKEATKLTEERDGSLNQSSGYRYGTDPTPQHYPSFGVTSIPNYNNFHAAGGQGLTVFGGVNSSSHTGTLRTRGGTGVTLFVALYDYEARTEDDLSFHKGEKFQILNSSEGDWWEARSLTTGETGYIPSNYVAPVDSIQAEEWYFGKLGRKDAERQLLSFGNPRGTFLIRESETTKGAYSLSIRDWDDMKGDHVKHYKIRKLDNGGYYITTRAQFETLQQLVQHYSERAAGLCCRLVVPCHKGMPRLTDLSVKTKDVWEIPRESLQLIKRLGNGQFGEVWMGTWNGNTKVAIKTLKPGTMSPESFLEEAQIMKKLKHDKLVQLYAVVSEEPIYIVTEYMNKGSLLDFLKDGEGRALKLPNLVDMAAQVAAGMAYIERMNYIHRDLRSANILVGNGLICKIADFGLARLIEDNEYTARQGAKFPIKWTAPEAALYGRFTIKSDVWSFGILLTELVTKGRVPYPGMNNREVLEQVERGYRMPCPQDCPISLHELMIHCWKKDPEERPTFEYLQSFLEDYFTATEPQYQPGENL
# Hck, sequence (P08631 whole entry, looked up): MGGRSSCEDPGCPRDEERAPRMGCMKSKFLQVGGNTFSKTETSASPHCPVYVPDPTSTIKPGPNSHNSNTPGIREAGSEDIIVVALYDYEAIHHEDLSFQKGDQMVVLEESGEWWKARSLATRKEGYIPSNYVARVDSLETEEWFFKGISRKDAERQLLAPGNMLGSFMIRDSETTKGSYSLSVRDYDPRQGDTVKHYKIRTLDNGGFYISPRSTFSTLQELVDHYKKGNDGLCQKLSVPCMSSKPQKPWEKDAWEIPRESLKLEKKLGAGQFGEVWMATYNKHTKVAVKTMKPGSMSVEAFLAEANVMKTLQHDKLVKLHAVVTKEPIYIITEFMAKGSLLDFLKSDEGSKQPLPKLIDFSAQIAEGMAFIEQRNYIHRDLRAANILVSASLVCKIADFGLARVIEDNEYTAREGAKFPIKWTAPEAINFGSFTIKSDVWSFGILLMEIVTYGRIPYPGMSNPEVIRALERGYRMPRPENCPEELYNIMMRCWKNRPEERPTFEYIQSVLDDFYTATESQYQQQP
# Fes, sequence (P07332 whole entry, looked up): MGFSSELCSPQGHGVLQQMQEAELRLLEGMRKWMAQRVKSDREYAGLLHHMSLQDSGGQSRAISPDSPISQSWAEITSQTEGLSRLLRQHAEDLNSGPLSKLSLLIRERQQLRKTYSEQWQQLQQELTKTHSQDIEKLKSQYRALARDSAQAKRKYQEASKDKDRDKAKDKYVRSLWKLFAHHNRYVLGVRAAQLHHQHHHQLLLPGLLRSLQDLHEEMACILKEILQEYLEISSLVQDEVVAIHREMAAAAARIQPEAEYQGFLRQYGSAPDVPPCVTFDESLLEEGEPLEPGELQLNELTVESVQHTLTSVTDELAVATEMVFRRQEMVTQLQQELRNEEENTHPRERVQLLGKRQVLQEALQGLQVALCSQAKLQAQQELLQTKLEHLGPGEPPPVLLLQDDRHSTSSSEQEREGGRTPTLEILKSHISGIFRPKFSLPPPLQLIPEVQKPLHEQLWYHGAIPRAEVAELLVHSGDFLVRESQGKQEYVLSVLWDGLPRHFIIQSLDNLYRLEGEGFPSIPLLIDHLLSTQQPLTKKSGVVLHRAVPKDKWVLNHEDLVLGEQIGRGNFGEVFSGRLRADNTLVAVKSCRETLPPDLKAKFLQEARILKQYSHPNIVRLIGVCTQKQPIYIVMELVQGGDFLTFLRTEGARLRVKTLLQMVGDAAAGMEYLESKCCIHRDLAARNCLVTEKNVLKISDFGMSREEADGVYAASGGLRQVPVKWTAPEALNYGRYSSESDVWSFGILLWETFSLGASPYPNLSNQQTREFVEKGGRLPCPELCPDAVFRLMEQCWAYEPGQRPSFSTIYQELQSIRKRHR
# FGFR1, sequence (P11362 whole entry, looked up, the tested form may be a part): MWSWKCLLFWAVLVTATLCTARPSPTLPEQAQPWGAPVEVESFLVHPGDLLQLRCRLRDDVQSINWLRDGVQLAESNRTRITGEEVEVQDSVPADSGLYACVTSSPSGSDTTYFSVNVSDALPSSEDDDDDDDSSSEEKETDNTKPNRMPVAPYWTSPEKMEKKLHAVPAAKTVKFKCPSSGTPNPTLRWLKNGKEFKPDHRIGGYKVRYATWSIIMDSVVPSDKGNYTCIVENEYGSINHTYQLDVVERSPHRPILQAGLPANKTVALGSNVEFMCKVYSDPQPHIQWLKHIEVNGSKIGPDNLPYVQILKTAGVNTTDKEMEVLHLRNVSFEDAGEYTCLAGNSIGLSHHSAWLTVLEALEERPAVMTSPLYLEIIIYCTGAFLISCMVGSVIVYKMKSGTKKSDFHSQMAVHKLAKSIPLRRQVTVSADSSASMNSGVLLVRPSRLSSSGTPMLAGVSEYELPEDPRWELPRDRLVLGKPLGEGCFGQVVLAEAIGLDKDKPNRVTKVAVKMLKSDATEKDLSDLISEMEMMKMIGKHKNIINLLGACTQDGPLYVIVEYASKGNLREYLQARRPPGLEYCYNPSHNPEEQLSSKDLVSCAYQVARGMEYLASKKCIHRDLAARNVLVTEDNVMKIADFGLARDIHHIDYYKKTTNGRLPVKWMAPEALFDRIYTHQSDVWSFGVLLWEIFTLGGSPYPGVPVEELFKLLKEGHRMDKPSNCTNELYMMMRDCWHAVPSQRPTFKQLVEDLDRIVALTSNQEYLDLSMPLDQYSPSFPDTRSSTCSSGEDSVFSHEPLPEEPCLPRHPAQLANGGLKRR
# EPHB1, sequence (P54762 whole entry, looked up): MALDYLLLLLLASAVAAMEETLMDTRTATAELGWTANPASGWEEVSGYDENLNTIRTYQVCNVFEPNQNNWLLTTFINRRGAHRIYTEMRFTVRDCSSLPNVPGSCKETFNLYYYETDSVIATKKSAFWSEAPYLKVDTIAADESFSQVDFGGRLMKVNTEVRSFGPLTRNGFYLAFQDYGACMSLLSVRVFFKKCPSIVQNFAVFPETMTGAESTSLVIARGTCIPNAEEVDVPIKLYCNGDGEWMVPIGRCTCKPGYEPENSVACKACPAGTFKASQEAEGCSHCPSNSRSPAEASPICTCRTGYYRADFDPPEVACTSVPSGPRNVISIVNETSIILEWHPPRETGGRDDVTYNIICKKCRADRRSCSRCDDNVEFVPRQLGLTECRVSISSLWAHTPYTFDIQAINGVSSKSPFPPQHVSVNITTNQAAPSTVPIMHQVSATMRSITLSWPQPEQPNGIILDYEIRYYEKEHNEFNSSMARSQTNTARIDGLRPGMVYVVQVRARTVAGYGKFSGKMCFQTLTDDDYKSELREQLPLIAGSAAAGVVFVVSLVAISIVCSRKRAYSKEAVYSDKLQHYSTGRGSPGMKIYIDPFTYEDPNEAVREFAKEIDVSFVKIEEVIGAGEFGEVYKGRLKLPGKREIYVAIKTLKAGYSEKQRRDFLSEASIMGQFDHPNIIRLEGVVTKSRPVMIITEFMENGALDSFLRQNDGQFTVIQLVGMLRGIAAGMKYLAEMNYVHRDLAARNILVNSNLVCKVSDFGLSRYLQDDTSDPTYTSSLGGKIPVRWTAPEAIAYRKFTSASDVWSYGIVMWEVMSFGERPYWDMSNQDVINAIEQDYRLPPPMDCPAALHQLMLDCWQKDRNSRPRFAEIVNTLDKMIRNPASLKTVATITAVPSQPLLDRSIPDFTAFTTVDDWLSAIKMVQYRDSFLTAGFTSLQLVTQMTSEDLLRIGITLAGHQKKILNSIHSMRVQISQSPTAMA
Sequence,SH2 binding enrichment (c-Src SH2),SH2 binding enrichment (Grb2 SH2),SH2 binding enrichment (SHP2-C SH2),phosphorylation enrichment (Fer (mouse)),phosphorylation enrichment (EPHB2),phosphorylation enrichment (Fyn),phosphorylation enrichment (MERTK),phosphorylation enrichment (c-Src),phosphorylation enrichment (c-Abl (mouse)),phosphorylation enrichment (FGFR3),phosphorylation enrichment (Jak2),phosphorylation enrichment (Fes),phosphorylation enrichment (Hck),phosphorylation enrichment (EPHB1),phosphorylation enrichment (AncSZ),phosphorylation enrichment (FGFR1)
ETVHRYVELLD [AP1S3_Y87_I83T],24.5,0.929,1.94,0.435,0.654,0.478,0.415,0.461,0.613,0.746,0.752,0.997,0.52,0.538,0.905,0.591
EVEPTYVVLYD [ERCC4_Y577_R576T],0.532,0.775,0.563,1.49,13.7,6,3.54,4.73,0.864,4.01,1.1,1.13,3,10.9,1.76,5.87
EVESPYEVHDY [GIGYF2_Y1168],0.485,0.86,0.599,9.16,0.84,4.95,0.567,4.25,0.762,0.792,1.03,1.1,1.13,0.785,1.66,0.489
EVRAQYEEIAQ [KRT76_Y361],22.5,0.666,0.623,0.977,0.641,0.526,0.404,0.388,0.92,0.98,1.07,1.22,0.614,0.697,1.19,0.611
FAADFYKLLGN [ROR2_Y646_YF],0.431,0.849,0.821,0.366,0.512,0.366,0.438,0.524,0.738,0.66,1.16,1.01,0.484,0.474,1.02,0.365
FADIAYNFRDG [PAH_Y166_H170D_YF],0.424,0.953,0.58,0.473,0.476,0.534,0.47,0.583,0.551,0.613,0.654,0.892,0.464,0.446,0.695,0.41
FARECYSALPQ [SARS2_Y52_G51C_YF],0.5,0.762,0.759,0.982,0.603,0.671,1.18,0.702,0.726,1.06,0.761,1.01,2.93,0.55,1.66,1.17
FATAGYGSLEA [EPHA10_Y959_A956T],0.564,0.901,0.933,0.37,0.45,0.441,0.425,0.637,0.569,0.663,0.691,0.94,0.437,0.368,0.833,0.52
FDGKDYIALNE [HLA-A_Y147_YF],0.557,0.785,0.807,0.496,0.704,0.7,0.382,0.386,0.654,0.68,0.898,1.06,0.6,0.628,1.21,0.601
FEPWVYSLSFE [PRKDC_Y647_F649L_YF],0.471,0.88,0.742,1.41,1.26,7.08,1.35,6.52,0.672,0.839,1.34,1.45,4.58,0.607,1.27,0.598
FFVVRYCWLRR [MPZ_Y181_YF],0.499,0.604,0.414,0.493,0.496,0.495,0.564,0.5,0.623,0.609,0.597,0.819,0.459,0.483,0.767,0.456
FGVTLYPNSGE [MEP1A_Y472_R476G],0.588,0.9,0.851,0.54,0.726,0.481,0.341,0.473,0.794,0.714,1.23,1.12,0.574,0.597,1.28,0.524
FIATQYSLRPR [LBR_Y166_YF],0.477,1.01,0.973,0.399,0.518,0.458,0.506,0.464,0.525,0.471,0.551,0.671,0.454,0.39,0.635,0.532
FKDGQYWIRGQ [ACSF3_Y466_R471Q],0.592,0.856,0.688,0.32,0.598,0.477,0.385,0.426,0.433,0.663,0.507,0.876,0.915,0.522,0.831,0.598
FKPENYRRLDI [VHL_Y175_V170F],0.402,0.892,0.923,0.376,0.425,0.32,0.41,0.312,0.63,0.544,0.747,0.738,0.383,0.367,0.599,0.414
FLTQHHDAKPQ [ANG_Y38_Y38H],0.604,0.876,0.669,0.468,0.381,0.279,0.44,0.396,0.552,0.451,0.464,0.742,0.353,0.33,0.497,0.447
FMCKVYSDRQP [FGFR1_Y280_P283R],0.527,0.771,0.666,0.587,0.577,0.544,0.463,0.634,0.879,0.808,1.35,1.54,0.582,0.577,1.52,0.494
